± gives the standard deviation of the averaged measurements.
Each sequence was assayed on Saccharomyces cerevisiae (assay: protein stability index of tFT-peptide fusion (C-terminal peptide) (PSI (0-1 scale)); higher = more stable (slower turnover)). Conditions: genetic background: das1 deletion; temperature: 30 C.
Protocol: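 MPS profiling in S. cerevisiae of the yeast C-terminome library: the last 12 aa of each annotated ORF are fused to the C-terminus of a sfGFP-mCherry timer, after a GGGS linker. Cells are FACS-sorted into 8 mCherry/sfGFP bins and deep-sequenced. PSI runs from 0 (unstable) to 1 (stable); wild type and das1Δ backgrounds, two technical replicates each.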

| Sequence | protein stability index |
| --- | --- |
| DGSGKYFLKHDS [KTR2 C-terminal 12 aa] | 0.706 ± 0.0039 |
| DHKVGAQVSYKY [MAD2 C-terminal 12 aa] | 0.71 ± 0.0075 |
| DIGKKKYSHSSN [RER1 C-terminal 12 aa] | 0.673 ± 0.043 |
| DKEQQQQQQQQP [ZDS1 C-terminal 12 aa] | 0.702 ± 0.0076 |
| DKEVLHVKADSL [FTR1 C-terminal 12 aa] | 0.7131 ± 0.0063 |
| DLAYQYVRALEL [SRB2 C-terminal 12 aa] | 0.683 ± 0.013 |
| DLDLDLFDPDDF [MED4 C-terminal 12 aa] | 0.7055 ± 0.0036 |
| DLSSFFNYRSVQ [SPH1 C-terminal 12 aa] | 0.75 ± 0.015 |
| DLSTRIYSLAYE [ELP2 C-terminal 12 aa] | 0.71 ± 0.051 |
| DLYTEEFLKEGK [PRP39 C-terminal 12 aa] | 0.683 ± 0.035 |
| DNFNSAPSYFSK [MIG3 C-terminal 12 aa] | 0.6975 ± 0.0012 |
| DNGRIIITGIPN [ECM5 C-terminal 12 aa] | 0.681 ± 0.024 |
| DNYLKYIKALLL [MSH2 C-terminal 12 aa] | 0.71 ± 0.029 |
| DPERQNNSNFYN [SMC6 C-terminal 12 aa] | 0.702 ± 0.052 |
| DPFLYSCSRVAF [YDL196W C-terminal 12 aa] | 0.729 ± 0.038 |
| DQIYWFNHFSNV [AIM2 C-terminal 12 aa] | 0.7141 ± 0.0021 |
| DRKRRKLLWYQA [MRPL20 C-terminal 12 aa] | 0.718 ± 0.045 |

| Sequence | protein stability index |
| --- | --- |
| DSDNAAPLHDEL [KRE5 C-terminal 12 aa] | 0.687 ± 0.017 |
| DSEDDNDTSSES [PRP38 C-terminal 12 aa] | 0.682 ± 0.026 |
| DSMRGNSRNNMF [EBS1 C-terminal 12 aa] | 0.7083 ± 0.0062 |
| DSTAPKPIPGKE [YKL030W C-terminal 12 aa] | 0.68 ± 0.0037 |
| DTSLYRYRSYGY [PUF2 C-terminal 12 aa] | 0.7007 ± 0.0045 |
| DTSPAQEQSPAN [ARG80 C-terminal 12 aa] | 0.695 ± 0.026 |
| DTTFTGCTKKIL [YGL102C C-terminal 12 aa] | 0.698 ± 0.023 |
| DVEVVCRQNNFV [YDR327W C-terminal 12 aa] | 0.723 ± 0.0082 |
| DYKLLKELASQV [GLT1 C-terminal 12 aa] | 0.66531 ± 0.00065 |
| DYLYAKDDLLKW [GPP1 C-terminal 12 aa] | 0.7287 ± 0.0048 |
| EALVKQITSVKQ [SCC4 C-terminal 12 aa] | 0.6973 ± 0.006 |
| EDGAVGNLFDDN [MSN5 C-terminal 12 aa] | 0.681 ± 0.018 |
| EDGRPPQNDFKE [TIM22 C-terminal 12 aa] | 0.699 ± 0.0092 |
| EDHKFDLSTITV [MRPL24 C-terminal 12 aa] | 0.703 ± 0.01 |
| EDKGLLSCCTVM [YCP4 C-terminal 12 aa] | 0.786 ± 0.011 |
| EEADSLYISMGL [LCD1 C-terminal 12 aa] | 0.709 ± 0.021 |
| EEAFGKVQTKTF [SOL3 C-terminal 12 aa] | 0.7098 ± 0.0052 |

Same assay, conditions: genetic background: wild type; temperature: 30 C

| Sequence | protein stability index |
| --- | --- |
| DGSGKYFLKHDS [KTR2 C-terminal 12 aa] | 0.708 ± 0.04 |
| DHKVGAQVSYKY [MAD2 C-terminal 12 aa] | 0.675 ± 0.017 |
| DIGKKKYSHSSN [RER1 C-terminal 12 aa] | 0.686 ± 0.049 |
| DKEQQQQQQQQP [ZDS1 C-terminal 12 aa] | 0.708 ± 0.032 |
| DKEVLHVKADSL [FTR1 C-terminal 12 aa] | 0.7 ± 0.047 |
| DLAYQYVRALEL [SRB2 C-terminal 12 aa] | 0.673 ± 0.0094 |
| DLDLDLFDPDDF [MED4 C-terminal 12 aa] | 0.684 ± 0.044 |
| DLSSFFNYRSVQ [SPH1 C-terminal 12 aa] | 0.7374 ± 0.0021 |
| DLSTRIYSLAYE [ELP2 C-terminal 12 aa] | 0.665 ± 0.011 |
| DLYTEEFLKEGK [PRP39 C-terminal 12 aa] | 0.6685 ± 0.0064 |
| DNFNSAPSYFSK [MIG3 C-terminal 12 aa] | 0.682 ± 0.052 |
| DNGRIIITGIPN [ECM5 C-terminal 12 aa] | 0.675 ± 0.033 |
| DNYLKYIKALLL [MSH2 C-terminal 12 aa] | 0.445 ± 0.026 |
| DPERQNNSNFYN [SMC6 C-terminal 12 aa] | 0.686 ± 0.026 |
| DPFLYSCSRVAF [YDL196W C-terminal 12 aa] | 0.702 ± 0.012 |
| DQIYWFNHFSNV [AIM2 C-terminal 12 aa] | 0.696 ± 0.027 |
| DRKRRKLLWYQA [MRPL20 C-terminal 12 aa] | 0.2489 ± 0.00046 |

| Sequence | protein stability index |
| --- | --- |
| DSDNAAPLHDEL [KRE5 C-terminal 12 aa] | 0.685 ± 0.048 |
| DSEDDNDTSSES [PRP38 C-terminal 12 aa] | 0.6733 ± 0.0012 |
| DSMRGNSRNNMF [EBS1 C-terminal 12 aa] | 0.717 ± 0.021 |
| DSTAPKPIPGKE [YKL030W C-terminal 12 aa] | 0.663 ± 0.009 |
| DTSLYRYRSYGY [PUF2 C-terminal 12 aa] | 0.683 ± 0.033 |
| DTSPAQEQSPAN [ARG80 C-terminal 12 aa] | 0.709 ± 0.013 |
| DTTFTGCTKKIL [YGL102C C-terminal 12 aa] | 0.66 ± 0.019 |
| DVEVVCRQNNFV [YDR327W C-terminal 12 aa] | 0.724 ± 0.025 |
| DYKLLKELASQV [GLT1 C-terminal 12 aa] | 0.635 ± 0.054 |
| DYLYAKDDLLKW [GPP1 C-terminal 12 aa] | 0.709 ± 0.011 |
| EALVKQITSVKQ [SCC4 C-terminal 12 aa] | 0.701 ± 0.015 |
| EDGAVGNLFDDN [MSN5 C-terminal 12 aa] | 0.667 ± 0.033 |
| EDGRPPQNDFKE [TIM22 C-terminal 12 aa] | 0.734 ± 0.057 |
| EDHKFDLSTITV [MRPL24 C-terminal 12 aa] | 0.717 ± 0.023 |
| EDKGLLSCCTVM [YCP4 C-terminal 12 aa] | 0.743 ± 0.032 |
| EEADSLYISMGL [LCD1 C-terminal 12 aa] | 0.701 ± 0.012 |
| EEAFGKVQTKTF [SOL3 C-terminal 12 aa] | 0.7564 ± 0.0044 |

Reference: the supplement of paper PMC10724198
